Laboratory results taken from patent publication US20220074941A1, “HSP90 COMBINATION THERAPY” (Sloan-Kettering Institute for Cancer Research, priority 2011, published 2022).

B1: TRIM56 (protein, UniProt Q9BRZ2 1-755, looked up)
E3 ubiquitin-protein ligase …: MVSHGSSPSLLEALSSDFLACKICLEQLRAPKTLPCLHTYCQDCLAQLADGGRVRCPECRETVPVPPEGVASFKTNFFVNGLLDLVKARACGDLRAGKPACALCPLVGGTSTGGPATARCLDCADDLCQACADGHRCTRQTHTHRVVDLVGYRAGWYDEEARERQAAQCPQHPGEALRFLCQPCSQLLCRECRLDPHLDHPCLPLAEAVRARRPGLEGLLAGVDNNLVELEAARRVEKEALARLREQAARVGTQVEEAAEGVLRALLAQKQEVLGQLRAHVEAAEEAARERLAELEGREQVARAAAAFARRVLSLGREAEILSLEGAIAQRLRQLQGCPWAPGPAPCLLPQLELHPGLLDKNCHLLRLSFEEQQPQKDGGKDGAGTQGGEESQSRREDEPKTERQGGVQPQAGDGAQTPKEEKAQTTREEGAQTLEEDRAQTPHEDGGPQPHRGGRPNKKKKFKGRLKSISREPSPALGPNLDGSGLLPRPIFYCSFPTRMPGDKRSPRITGLCPFGPREILVADEQNRALKRFSLNGDYKGTVPVPEGCSPCSVAALQSAVAFSASARLYLINPNGEVQWRRALSLSQASHAVAALPSGDRVAVSVAGHVEVYNMEGSLATRFIPGGKASRGLRALVFLTTSPQGHFVGSDWQQNSVVICDGLGQVVGEYKGPGLHGCQPGSVSVDKKGYIFLTLREVNKVVILDPKGSLLGDFLTAYHGLEKPRVTTMVDGRYLVVSLSNGTIHIFRVRSPDS
B2: ZG16B (protein, UniProt Q96DA0 17-172, looked up)
Pancreatic adenocarcinoma …: GKMYGPGGGKYFSTTEDYDHEITGLRVSVGLLLVKSVQVKLGDSWDVKLGALGGNTQEVTLQPGEYITKVFVAFQAFLRGMVMYTSKDRYFYFGKLDGQISSAYPSQEGQVLVGIYGQYQLLGIKSIGFEWNYPLEEPTTEPPVNLTYSANSPVGR
B3: HYOU1 (protein, UniProt Q9Y4L1 33-999, looked up)
Hypoxia up-regulated protein 1: LAVMSVDLGSESMKVAIVKPGVPMEIVLNKESRRKTPVIVTLKENERFFGDSAASMAIKNPKATLRYFQHLLGKQADNPHVALYQARFPEHELTFDPQRQTVHFQISSQLQFSPEEVLGMVLNYSRSLAEDFAEQPIKDAVITVPVFFNQAERRAVLQAARMAGLKVLQLINDNTATALSYGVFRRKDINTTAQNIMFYDMGSGSTVCTIVTYQMVKTKEAGMQPQLQIRGVGFDRTLGGLEMELRLRERLAGLFNEQRKGQRAKDVRENPRAMAKLLREANRLKTVLSANADHMAQIEGLMDDVDFKAKVTRVEFEELCADLFERVPGPVQQALQSAEMSLDEIEQVILVGGATRVPRVQEVLLKAVGKEELGKNINADEAAAMGAVYQAAALSKAFKVKPFVVRDAVVYPILVEFTREVEEEPGIHSLKHNKRVLFSRMGPYPQRKVITFNRYSHDFNFHINYGDLGFLGPEDLRVFGSQNLTTVKLKGVGDSFKKYPDYESKGIKAHFNLDESGVLSLDRVESVFETLVEDSAEEESTLTKLGNTISSLFGGGTTPDAKENGTDTVQEEEESPAEGSKDEPGEQVELKEEAEAPVEDGSQPPPPEPKGDATPEGEKATEKENGDKSEAQKPSEKAEAGPEGVAPAPEGEKKQKPARKRRMVEEIGVELVVLDLPDLPEDKLAQSVQKLQDLTLRDLEKQEREKAANSLEAFIFETQDKLYQPEYQEVSTEEQREEISGKLSAASTWLEDEGVGATTVMLKEKLAELRKLCQGLFFRVEERKKWPERLSALDNLLNHSSMFLKGARLIPEMDQIFTEVEMTTLEKVINETWAWKNATLAEQAKLPATEKPVLLSKDIEAKMMALDREVQYLLNKAKFTKPRPRPKDKNGTRAEPPLNASASDQGEKVIPPAGQTEDAEPISEPEKVETGSEPGDTEPLELGGPGAEPEQKEQSTGQKRPLKNDEL

test system: Hsp90 complexes in K562 cell extract; assay: Nano-LC-MS/MS of PU-beads pull-downs; assay type: binding; details: protein identified in PU-beads pull-down of K562 cell extract, Prep 1; QSTAR-Elite QTof MS
Experimental: Protein cargo isolated from cell lysate with PU-beads or control-beads was subjected to proteomic analysis by nano liquid chromatography coupled to tandem mass spectrometry (nano LC-MS/MS). Initial protein identification was performed using the Mascot search engine, and was further evaluated using Scaffold Proteome Software (Tables 5a-d).
(§1) Lysates prepared as mentioned above were first pre-cleaned by incubation with control beads overnight at 4° C. […] Beads were washed with lysis buffer, proteins eluted by boiling in 2% SDS, separated on a denaturing gel and Coomassie stained according to manufacturer's procedure (Biorad). […] Analyses of the batch purified pools were done using a QSTAR-Elite hybrid quadrupole time-of-flight mass spectrometer (QTof MS) (AB/MDS Sciex), equipped with a nano spray ion source. Peptide mixtures (in 20 μL) are loaded onto a trapping guard column (0.3×5-mm PepMap C18 100 cartridge from LC Packings) using an Eksigent nano MDLC system (Eksigent Technologies, Inc) at a flow rate of 20 μL/min. […] Electrospray ionization (ESI) needle voltage was set at about 1800 V. The mass analyzer is operated in automatic, data-dependent MS/MS acquisition mode, with the threshold set to 10 counts per second of doubly or triply charged precursor ions selected for fragmentation scans. Survey scans of 0.25 sec are recorded from 400 to 1800 amu; up to 3 MS/MS scans are then collected sequentially for the selected precursor ions, recording from 100 to 1800 amu. The collision energy is automatically adjusted in accordance with the m/z value of the precursor ions selected for MS/MS. Selected precursor ions are excluded from repeated selection for 60 sec after the end of the corresponding fragmentation duty cycle. […] One missed tryptic cleavage site was allowed, precursor ion mass tolerance=0.4 Da fragment ion mass tolerance=0.4 Da, protein modifications were allowed for Met-oxide, Cys-acrylamide and N-terminal acetylation. MudPit scoring was typically applied with ‘require bold red’ activated, and using significance threshold score p<0.05. Unique peptide counts (or ‘spectral counts’) and percent sequence coverages for all identified proteins were exported to Scaffold Proteome Software (version 2_06_01, www.proteomesoftware.com) for further bioinformatic analysis (Table 5a). Using output from Mascot, Scaffold validates, organizes, and interprets mass spectrometry data, allowing more easily to manage large amounts of data, to compare samples, and to search for protein modifications.

With B1 as the molecule, how does the “Number of Assigned Spectra, K562 Prep 1” value read?
Its value is 0.

With B2 as the molecule, how does the “Number of Assigned Spectra, K562 Prep 1” value read?
Its value is 0.

Which “Number of Assigned Spectra, K562 Prep 1” value does the source give for B3 here?
The value was 0.

same assay, conditions: protein identified in PU-beads pull-down of K562 cell extract, Prep 2; QSTAR-Elite QTof MS

B1 was tested. Which “Number of Assigned Spectra, K562 Prep 2” value did it give?
Its value is 0.

B2 was tested. Which “Number of Assigned Spectra, K562 Prep 2” value did it give?
The value was 3.

How did the “Number of Assigned Spectra, K562 Prep 2” value turn out when B3 was run?
The value was 3.

test system: Hsp90 complexes in Mia-PaCa-2 cell extract; assay: Nano-LC-MS/MS of PU-beads pull-downs; assay type: binding, human; details: protein identified in PU-beads pull-down of Mia-PaCa-2 cell extract; QSTAR-Elite QTof MS
Experimental: as §1

For B1, which “Number of Assigned Spectra, Mia-Paca 2” value is on record?
Its value is 3.

How did the “Number of Assigned Spectra, Mia-Paca 2” value turn out when B2 was run?
Its value is 0.

How did the “Number of Assigned Spectra, Mia-Paca 2” value turn out when B3 was run?
The value was 0.
